# Reference: publication PMC7549839, “Posttranslational insertion of small membrane proteins by the bacterial signal recognition particle” (PLoS Biology, 2020)
# B1: YohP (nontagged) (natural protein, E. coli, UniProt C1P609 1-27, looked up)
# chain: MKIILWAVLIIFLIGLLVVTGVFKMIF
# notes: YohP, small membrane protein of E. coli, 27 amino acids; also called nontagged YohP; source: E. coli C43(DE3) with pET19b-YohP, expressed in vivo, pulse-labelled with 35S methionine/cysteine; whole cells or cell fractions
# B2: His-tagged YohP (YohPHis) (natural protein, E. coli, UniProt C1P609 1-27, looked up)
# chain: MKIILWAVLIIFLIGLLVVTGVFKMIF
# notes: YohP, small membrane protein of E. coli, 27 amino acids; also called YohP_(His6); source: E. coli, expressed in vivo from pBad24 (arabinose) or pET19b (IPTG); whole cells TCA precipitated or cell fractions (INV); not shown: His6, C-terminal, kept
# Experiments:
# [1] = target: the molecule itself; test: SDS-resistant dimer on SDS-PAGE; in vivo expression, 35S pulse-chase labelling with rifampicin; whole cells or fractions TCA precipitated, Tricine-SDS-PAGE, autoradiography
# [2] = target: the molecule itself; test: SDS-resistant dimer on SDS-PAGE; YohPHis expressed in vivo; whole cells or cell fractions (INV), Tricine-SDS-PAGE, western blot with anti-His antibodies
Protein,stoichiometry N [1],stoichiometry N [2]
B1,2,
B2,,2
